Drawing on publication PMC2731897, this text covers stoichiometry N for one molecule.

In this assay the target is T1, Mycobacterium tuberculosis GroEL1 (Rv3417c) without (His)6 tag (Mycobacterium tuberculosis), P9WPE9.
T1 chain: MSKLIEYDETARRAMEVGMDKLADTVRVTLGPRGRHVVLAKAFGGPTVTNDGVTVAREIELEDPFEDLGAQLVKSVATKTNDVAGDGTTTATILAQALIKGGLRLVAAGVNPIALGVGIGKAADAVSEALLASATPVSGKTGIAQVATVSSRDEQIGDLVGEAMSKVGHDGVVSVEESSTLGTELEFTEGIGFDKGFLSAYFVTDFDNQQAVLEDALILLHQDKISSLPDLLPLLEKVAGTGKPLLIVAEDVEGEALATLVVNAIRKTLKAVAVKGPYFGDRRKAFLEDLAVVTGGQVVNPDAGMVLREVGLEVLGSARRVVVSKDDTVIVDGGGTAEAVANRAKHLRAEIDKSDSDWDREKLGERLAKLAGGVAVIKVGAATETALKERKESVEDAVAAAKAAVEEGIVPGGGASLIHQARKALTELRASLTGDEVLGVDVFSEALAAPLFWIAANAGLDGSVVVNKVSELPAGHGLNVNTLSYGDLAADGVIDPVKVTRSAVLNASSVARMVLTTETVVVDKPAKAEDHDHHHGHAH
Put plainly: SEC. To be noted: remark: other sources report otherwise.

B1: Mycobacterium tuberculosis GroEL1 (Rv3417c) without (His)6 tag, P9WPE9 1-539 (natural protein)
chain: MSKLIEYDETARRAMEVGMDKLADTVRVTLGPRGRHVVLAKAFGGPTVTNDGVTVAREIELEDPFEDLGAQLVKSVATKTNDVAGDGTTTATILAQALIKGGLRLVAAGVNPIALGVGIGKAADAVSEALLASATPVSGKTGIAQVATVSSRDEQIGDLVGEAMSKVGHDGVVSVEESSTLGTELEFTEGIGFDKGFLSAYFVTDFDNQQAVLEDALILLHQDKISSLPDLLPLLEKVAGTGKPLLIVAEDVEGEALATLVVNAIRKTLKAVAVKGPYFGDRRKAFLEDLAVVTGGQVVNPDAGMVLREVGLEVLGSARRVVVSKDDTVIVDGGGTAEAVANRAKHLRAEIDKSDSDWDREKLGERLAKLAGGVAVIKVGAATETALKERKESVEDAVAAAKAAVEEGIVPGGGASLIHQARKALTELRASLTGDEVLGVDVFSEALAAPLFWIAANAGLDGSVVVNKVSELPAGHGLNVNTLSYGDLAADGVIDPVKVTRSAVLNASSVARMVLTTETVVVDKPAKAEDHDHHHGHAH
The stoichiometry N is the number of molecules, sites or subunits per partner or assembly. With B1, the stoichiometry N is 2.
